Experimental data from paper PMC8633003.

Experiments:
[1] = molecular target: Aca1 protein of Pseudomonas aeruginosa phage JBD30, full-length (1-79), wild type (Pseudomonas aeruginosa phage JBD30); assay: SEC
Aca1 = molecular target: T1, Aca1 (Pseudomonas aeruginosa phage JBD30, UniProt L7P845 1-79); assay: ITC
T1 sequence: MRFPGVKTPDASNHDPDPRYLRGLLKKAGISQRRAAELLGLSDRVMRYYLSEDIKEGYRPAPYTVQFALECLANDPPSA

Aca2 R30A = molecular target: T2, Aca2 R30A (Pectobacterium carotovorum temperate …, UniProt H9C180 1-116, R30A); assay: ITC
T2 sequence: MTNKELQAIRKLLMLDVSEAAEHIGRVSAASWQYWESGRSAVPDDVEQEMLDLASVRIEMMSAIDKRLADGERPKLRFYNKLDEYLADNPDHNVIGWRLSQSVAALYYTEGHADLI

Aca2 Y34A = molecular target: T3, Aca2 Y34A (Pectobacterium carotovorum temperate …, UniProt H9C180 1-116, Y34A); assay: ITC
T3 sequence: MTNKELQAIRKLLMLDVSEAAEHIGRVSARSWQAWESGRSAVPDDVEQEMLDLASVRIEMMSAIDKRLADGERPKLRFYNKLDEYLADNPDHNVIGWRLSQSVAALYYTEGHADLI

Aca2 R39A = molecular target: T4, Aca2 R39A (Pectobacterium carotovorum temperate …, UniProt H9C180 1-116, R39A); assay: ITC
T4 sequence: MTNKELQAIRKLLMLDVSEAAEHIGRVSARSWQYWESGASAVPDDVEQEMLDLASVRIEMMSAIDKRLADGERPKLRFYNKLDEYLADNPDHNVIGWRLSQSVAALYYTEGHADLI

Aca1 R22A/Q32A = molecular target: T5, Aca1 R22A/Q32A (Pseudomonas aeruginosa phage JBD30, UniProt L7P845 1-79, R22A;Q32A); assay: ITC
T5 sequence: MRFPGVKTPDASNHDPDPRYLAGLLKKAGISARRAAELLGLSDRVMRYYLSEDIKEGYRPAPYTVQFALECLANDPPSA

Aca1 R44A = molecular target: T6, Aca1 R44A (Pseudomonas aeruginosa phage JBD30, UniProt L7P845 1-79, R44A); assay: ITC
T6 sequence: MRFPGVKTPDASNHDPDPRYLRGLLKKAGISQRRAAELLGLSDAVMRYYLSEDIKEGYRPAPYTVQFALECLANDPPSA

Aca1 R47A = molecular target: T7, Aca1 R47A (Pseudomonas aeruginosa phage JBD30, UniProt L7P845 1-79, R47A); assay: ITC
T7 sequence: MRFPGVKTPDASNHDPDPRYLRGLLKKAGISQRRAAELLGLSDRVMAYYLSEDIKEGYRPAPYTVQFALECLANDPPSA

Aca1 R59A = molecular target: T8, Aca1 R59A (Pseudomonas aeruginosa phage JBD30, UniProt L7P845 1-79, R59A); assay: ITC
T8 sequence: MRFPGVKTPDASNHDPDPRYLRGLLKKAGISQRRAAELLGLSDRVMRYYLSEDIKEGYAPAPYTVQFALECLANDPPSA

Aca1 S42G = molecular target: T9, Aca1 S42G (Pseudomonas aeruginosa phage JBD30, UniProt L7P845 1-79, S42G); assay: ITC
T9 sequence: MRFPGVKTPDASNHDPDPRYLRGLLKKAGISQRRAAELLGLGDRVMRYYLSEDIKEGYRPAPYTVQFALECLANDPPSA

Aca1 Y48A = molecular target: T10, Aca1 Y48A (Pseudomonas aeruginosa phage JBD30, UniProt L7P845 1-79, Y48A); assay: ITC
T10 sequence: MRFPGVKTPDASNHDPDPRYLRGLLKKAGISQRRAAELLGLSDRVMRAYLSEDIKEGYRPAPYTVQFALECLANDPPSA

Aca1 V45A = molecular target: T11, Aca1 V45A (Pseudomonas aeruginosa phage JBD30, UniProt L7P845 1-79, V45A); assay: ITC
T11 sequence: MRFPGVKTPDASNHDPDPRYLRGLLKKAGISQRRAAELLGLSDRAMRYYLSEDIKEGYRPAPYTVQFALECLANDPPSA

Molecule: Aca1 protein of Pseudomonas aeruginosa phage JBD30, full-length (1-79), wild type (natural protein)
- stoichiometry N [1]: 2

B1: 23-bp IR2 (dsDNA)
DNA 1: AATTAGGCACAATGTGCCTAATC
DNA 2: GATTAGGCACATTGTGCCTAATT
- Kd (Aca1): 32.2 nM

B2: 26-bp ZF40-IR1 blunt (dsDNA)
DNA 1: TGCTTGTTCGCGATTGCGAACATATA
DNA 2: TATATGTTCGCAATCGCGAACAAGCA
- binding result (Aca2 R30A): no binding
- binding result (Aca2 Y34A): no binding
- binding result (Aca2 R39A): no binding

B3: 21-bp IR2 (dsDNA)
DNA 1: ATTAGGCACAATGTGCCTAAT
DNA 2: ATTAGGCACATTGTGCCTAAT
- binding result (Aca1 R22A/Q32A): no binding
- binding result (Aca1 R44A): no binding
- binding result (Aca1 R47A): no binding
- binding result (Aca1 R59A): no binding
- Kd (Aca1): 74.1 nM
- Kd (Aca1 S42G): 59.2 nM
- Kd (Aca1 Y48A): 2860 nM
- Kd (Aca1 V45A): 364 nM

B4: 19-bp IR2 blunt (dsDNA)
DNA 1: TTAGGCACAATGTGCCTAA
DNA 2: TTAGGCACATTGTGCCTAA
- Kd (Aca1): 741 nM

B5: 21-bp IR1 (dsDNA)
DNA 1: AAGCGGCACACTGTGCCTATT
DNA 2: AATAGGCACAGTGTGCCGCTT
- Kd (Aca1): 53.2 nM
